Experimental data taken from the DeepSol protein solubility set.

Test: soluble on expression in E. coli; label from the status in PepcDB or PDB records

## MRLRHKPYAMDRINEYSHIVIGNPEERAGSWKEVFGNEQPIHIEVGTGRGRFMYDMAKANPHINYIGIEKFTSVVVDALDKLIEEELPNLKLINKDAEDLTVFFAKGEIDRVYLNFSDPWPKKRHTKRRLTYKTFLRNYEEVLVEGGEIHFKTDNQGLFEYSLMSMAEYGMLLTYLSLDLHNSDFEGNIMTEYEEKFSSKGHRIYRVEAKYRTEPMQ
  soluble on expression in E. coli: not soluble

## IRRNETTEADKQIPHYEREIIYQVLYDMKKEIADLKGMMNRLAHHEQPSWPVGSDVWGNDDKRTADPKWGVSTHKAPIANAAEPVEPIQEASEYTEDPVSLEEVEKKMISLALERHGGRRKQTAEELKISERTLYRKIKEYGLE
  soluble on expression in E. coli: not soluble

## MTSSLVLILAPLALVAIGEAAFGNSSKIFEIPGLEVMASDKYPHFTTIETVSRTKVHRHRREVIAGQIYDWNSYEIPFQIWGGDYNFQSLIRRGIRMWEDSTCLRFKENQQSRDAIRYVLEKGDSCFTEYIGRNGGHQDIIIGSECAEEYVVAHETGHALGFWHTHQRPDRDRHISINWKNVMEEATASFMPFRSMLQAFGIRQVSPRRVPYDYGSLMHYHAVAHAVKVSDFTIVPKELKYVTTMGTEKMAFLDAKVINDIYCPNACQGRNHLNCLAGGYPDPNNCNVCRCPEGLGGPDCGRLQPSPCGGEIHASDQWQTLSSPSGRDVHCYWRISVPEGSRVRFRLSDGEFPCSYGCQSYVEIKHKLDVRLTGFRSCCYRPKEDTVSESNQIFVIYHPNGRTARFSLRFRRQA
  soluble on expression in E. coli: not soluble

## MGSDKIHHHHHHMNTDSPLKAIQPPADEQAWAVRARRQFEAEQLLYAYVEYIDDDRLEELPELFTEDGSYQIISRENVERGLPAPTMGCSNRNMLIDRIVSLRHANIYSQHAYRHVLSNVRVKAMEGDEALVQSNYVVMATRGDGIARVYSTGKYVDRLVFEEDGPKFKQKRVIFDTQLIDTLLVRPL
  soluble on expression in E. coli: not soluble

## MGSDKIHHHHHHLRASSSIRVGAERAHLAIGAASKRMADLEASIGVQLFERHARGVALTAAGEALERHTQRILNDMDRMTAEMSDYAAGVVGVVRLWANTSSVTQFLPTDIAAFSVVHPDIRIELEEQDSEQVALAVVDGAADFGIMADRMPTLGLQAMLYRKDHLFLVVPDGHPLTQRESVSFVDALEFDFVSLARNTSLAKRLQAATAFSGGQIKLRIQVRSFDAMCLMVAAGPGIAILPDAAVGPHLRSMDLCRIPLSENWTRRELFICARDLNALPRPASLLVNHLIGATPDAVAVR
  soluble on expression in E. coli: not soluble

## MSLENAGSRPFLADFNGFSYLELKGLHTFERDLGEKMALEMVFLARGPSGLLLYNGQKTDGKGDFVSLALHNRHLEFRYDLGKGAAIIRSKEPIALGTWVRVFLERNGRKGALQVGDGPRVLGESPVPHTMLNLKEPLYVGGAPDFSKLARGAAVASGFDGAIQLVSLRGHQLLTQEHVLRAVDVAPFAGEGHHHHHH
  soluble on expression in E. coli: soluble

## MKLLHAIQTHAETYPQTDAFRSQGQSLTYQELWEQSDRAAAAIQKRISGEKKSPILVYGHMEPHMIVSFLGSVKAGHPYIPVDLSIPSERIAKIIESSGAELLIHAAGLSIDAVGQQIQTVSAEELLENEGGSVSQDQWVKEHETFYIIYTSGSTGNPKGVQISAANLQSFTDWICADFPVSGGKIFLNQAPFSFDLSVMDLYPCLQSGGTLHCVTKDAVNKPKVLFEELKKSGLNVWTSTPSFVQMCLMDPGFSQDLLPHADTFMFCGEVLPVSVAKALLERFPKAKIFNTYGPTEATVAVTSVEITNDVISRSESLPVGFAKPDMNIFIMDEEGQPLPEGEKGEIVIAGPSVSRGYLGEPELTEKAFFSHEGQWAYRTGDAGFIQDGQIFCQGRLDFQIKLHGYRMELEEIEFHVRQSQYVRSAVVIPYQPNGTVEYLIAAIVPEEHEFEKEFQLTSAIKKELAASLPAYMIPRKFIYQDHIQMTANGKIDRKRIGEEVLVRSHHHHHH
  soluble on expression in E. coli: soluble

## MKTKNKILHANCLQLGGKGLLIIGPSGSGKSTLTLSLLDRAGWSKREAKLISDDYTMLRVENGKLQGSTPEGLQGGIEIRGVGLYTIEFEKQTTIDCVILLGPEYERFSTNQTFKFADLHIPLLKLPSLHEADCTAICQAIEAFFFRKVWLKSV
  soluble on expression in E. coli: not soluble

## MSLKPQVYHVDAFTSQPFRGNSAGVVFPADNLSEAQMQLIARELGHSETAFLLHSDDSDVRIRYFTPTVEVPICGHATVAAHYVRAKVLGLGNCTIWQTSLAGKHRVTIEKHNDDYRISLEQGTPGFEPPLEGETRAAIINALHLTEDDILPGLPIQVATTGHSKVMIPLKPEVDIDALSPDLNALTAISKKIGCNGFFPFQIRPGKNETDGRMFSPAIGIVEDPVTGNANGPMGAWLVHHNVLPHDGNVLRVKGHQGRALGRDGMIEVTVTIRDNQPEKVTISGTAVILFHAEWAIELEGGSHHHHHH
  soluble on expression in E. coli: soluble

## MGSDKIHHHHHHMNDDFLFSDDEPDIAEEEVSEPYNILIVDDDEEIHTITKMALGEFKLDGRPLKFHSVYSGKDAIAFLQDNTNIAMMLLDVVMETDHAGLDVAQWVRETRKNRLIRIVLRTGQPGQAPEEDVIARYDIDDYKEKTELTYRKLVTLMYSCLRAYRDLNAIERNKRGLEKVINASAEVFSARSMQALCQGILEQLVALITLSDDAMYCRIDALTASSDTDDPFEIIGGTGEYEEAVGQPVHGEIDWDIVRPMQQSPQNVDFRIVDGNYYGLYKTSSSRQYLLFIRGVRDLSELDQNLLGLFVNNSSIAIDNLQATENEREAQRELLYSVGEAIEKHSIDEISHHVKRSAEMAGQLAIFSGATQEQAEALKQAASVYDIGKVSVQMELAQRADVLSIHEYEEIMQKVIQGHDYLRQTDSAVAKVAALIAQDIHERWNGSGFPSQKSAKAIDLNARILSITSHFDALRTQRNYRDAKESEDAADYLLQHSGKFFDPELVGLMLDNLDAMEKIRQRFLDKKQDTRH
  soluble on expression in E. coli: not soluble

## MAHHHHHHMCFVARHKPALISGEAVVWLMERITGEELDVRSLENLCSAVVHLPVAVRTALRQELMEFVAFLSLQARELLQQVPAAQGGLSGCSDADAIQYFVSHVLELTVMLRTYPDLQWPPEFLAAVDACAASVEPLQEALLSAESSPVGLMVRLLEAPTGECKRVGLAMLREAANQCQSFATLQTFRFLLLMGDHGLQDVGTSRYLRDQFAKTAADVPPVQLSVALRCLGVATAGAATQGASGAGELRATVEGTAGNADLDDELERERLDAFLQFCVEVSRKHLSQGAPLRCVLATTESLHRLGCRDTAFFADVAAYIAAKHAAAPAERESADTATAVCAALGEDLLGEYPAVREFLLDVAQRGVRGESAMSPTQWMNLHDPSNALTPLTEQQQESWDIVEEMVRTRSDDVDALVRLAEKYMELLPFARPDDHKYFFGVCEEKVLKQDKLLKKCLDTIVDCGAVSRLSAQTIASILHSLAAIRFEYFASVKRFTSSISDEQWLLMEAAPLVQILTGMDKLSLRTPAVLRRIGGRLTEICRFLTPLDTAQAIHALQALGHNDAKLLGKLAAHAAALARRFDEASMAVLFSTPSIHRLMSTPEVARPLLLQASAKIQSQHRREKISAWVRRSGLPRELIDESTRRLQVTSGDARSSEVHLRLT
  soluble on expression in E. coli: not soluble

## MPPIPSRARVYAEVNPSRPREYWDYEAHMIEWGQIDDYQLVRKLGRGKYSEVFEGFKMSTDEKVVVKILKPVKKKKIKREIKILENLRGGTNIITLLDVVKDPISRTPALIFEHVNNSDFKQLYQTLSDYDIRYYLYELLKALDFCHSQGIMHRDVKPHNVMIDAEKRELRLIDWGLAEFYHPRQDYNVRVASRYFKGPELLVDYQCYDYSLDMWSLGCMLASMIFRKEPFFHGHDNYDQLVRIAKVLGTDELYEYIARYHIDLDPRFNDILGRHSRKRWERFIHAENQHLVTPEALDFLDKLLRYDHAERLTAQEAMGHEYFRPVVEAHARANGTEQADGQGASNSASSQSSDAKIDGA
  soluble on expression in E. coli: not soluble

## MSLYVPGKQVTLAHIIASPNKEIYTKLGLPEGTSNALGILTITPSEAAIIAVDIATKSGDIQIGFIDRFSGSVVISGDVSSVEAALQAVIEGLQQILNFSVTCKEGHHHHHH
  soluble on expression in E. coli: not soluble

## MGSDKIHHHHHHMNRIAEEVGLQKASVYHHYAEKDTLLLALVDYVVEELRYRIVQPDDEDPRQQLRRFIDEVVFGHHAGPDATALSPPTDGTIRAFIQIRAQAVHDDDYREQITTIDRIQQEHIAEIIQRGVDAGEFRDVDPTQVASFISTLLTGVFTRRVTMTTDLTPVREATHAYLEAVLVA
  soluble on expression in E. coli: not soluble

## MLDIKFLRTNFEEVKAKLQHRGEDLTDFGRFEELDTRRRELLVQTEELKSKRNEVSQQISVLKREKKDAEALILEMREVGEKVKDLDNELRTVEEDLERLMLSIPNIPHESAPVGETEDDNVVARTWGEVKEFAFEPKPHWDLATDLGILDFERAGKVTGSRFVFYKGAGARLERALISFMLDLHTDEHGYEEVLPPYMVNRASMTGTGQLPKFEEDAFRIESEDYFLIPTAEVPVTNMHRDEILNKEQLPIRYAAFSSCFRSEAGSAGRDTRGLIRQHQFNKVELVKFVKPEDSYEELEKLTNDAERVLQLLELPYRVMSMCTGDLGFTAAKKYDIEVWIPSYGTYREISSCSNFEAFQARRANIRFRREPNGKPEHVHTLNGSGLAIGRTVAAILENYQQEDGTIIIPEVLRPYMGGKTVIK
  soluble on expression in E. coli: soluble

## MELEQREGTMAAVGFEEFSAPPGSELALPPLFGGHILESELETEVEFVSGGLGGSGLRERDEEEEAARGRRRRQRELNRRKYQALGRRCREIEQVNERVLNRLHQVQRITRRLQQERRFLMRVLDSYGDDYRASQFTIVLEDEGSQGTDAPTPGNAENEPPEKETLSPPRRTPAPPEPGSPAPGEGPSGRKRRRVPRDGRRAGNALTPELAPVQIKVEEDFGFEADEALDSSWVSRGPDKLLPYPTLASPASD
  soluble on expression in E. coli: soluble

## MATMSRRWNYFTPHYNDEGSIDVLDGKPPYIDLFDPLKQPLFQHLRSMHTEFSTTTADVNTTWEDASSTSSSNKGATIWFNEDAIDKSSRHEIGQSTVTHESEDDRFSFFNAVCTRLNSLQETKNSSETEEHAESPRKEKSSTPYGTDGFAPPPRSTQTNTLKVSNLPKRFESLYKKKRQQVATSDSSGFGSNASDFWSFERYGKSNQGTLERPNRLFTGTNNGFSTLQPKRRGSEAPKMTVELRYENDVPMVAKISANHAQSVTLRYFRHLFGLHYTDNCR
  soluble on expression in E. coli: not soluble

## GPGSMTDCWYIPEAVADRRDENRLSPNVPASYEVLGEAGIFYRHFDSEEVNDNIEGFIQPLLKKLNYQSYDVVNLSPANLGAEKFETLAEQHFMEHIHEDDEVRLILEGQGYFDVRDINDKWIRLLLKPGDCIVVPAGMYHRFTTDQSKCIKTLRIFKEAPQWIALNRGPEAEEKPARKEYLARLHAPAETAVGAVNGRTIFSLRYPLKLDAELTVITKRLLEQHSKQPLALAIYLTGSTDPTTGESWCPDCVLAKLHVARRFAELQGTYGKEHAIFLQLPVERASYLGNPNFFYRTHPILQLASVPTLLVLSPAKDAKEGGDVQWYDLLDVKVRTCDVDRTDVLNLE
  soluble on expression in E. coli: soluble

## MKIAKFTRINAHQVQNCNNEKIAHERKMEKVFEFLAEDKKTFEASNSFERTLIFCKHDKSAMAALLTLYDSKTIFGTFSEYLITNDKTVLERERVQVNNGEKMLAICNMDFMDDFQLGLAKHYIFLDFPLKIIGIKKMLDRLNTMAQQSEQVIDIDFLTTNMDARIYQEALNMEMTMRGSQVPKWLTELVNGSSELPEDPDVIFVRTCKPDLEPLTAKPAKLPSPRQPESKPSNEASSSQLEPTSASQPPSRVDQILKSRSGLPTKDADSSSEVAPRKRKPKSPAFDIYNMKRQPDGTFLIPSHVMGFCNEDLSEDDEEPDPEYDSEEEYNWMYKLDVW
  soluble on expression in E. coli: not soluble

## MSLHQFLLFKIKVPTGSMMPTVEIGDQLFVTKIYNPNNIKRGDIVVFNSDELKEPLLKRVIGLPGEHVEIKSDGSVYINGNKLEEDYVKYQGGKTDMSFDVPSGKFLMLGDNRNNSDDARYWSNPYIDGKDIEAKAQLTVYPFDRIGFVKEGHHHHHH
  soluble on expression in E. coli: soluble
